Measured values as given in paper PMC10045213.

Target: p75 NeuroTrophin Receptor (UniProt P08138)
Test: SPR; TrkA immobilized at 8860 RU, p75NTR immobilized at 4320 RU; 1.7-15 nM hNGF R100W flowed over; curves blank subtracted

Sequence of UniProt P08138 (P08138 29-427): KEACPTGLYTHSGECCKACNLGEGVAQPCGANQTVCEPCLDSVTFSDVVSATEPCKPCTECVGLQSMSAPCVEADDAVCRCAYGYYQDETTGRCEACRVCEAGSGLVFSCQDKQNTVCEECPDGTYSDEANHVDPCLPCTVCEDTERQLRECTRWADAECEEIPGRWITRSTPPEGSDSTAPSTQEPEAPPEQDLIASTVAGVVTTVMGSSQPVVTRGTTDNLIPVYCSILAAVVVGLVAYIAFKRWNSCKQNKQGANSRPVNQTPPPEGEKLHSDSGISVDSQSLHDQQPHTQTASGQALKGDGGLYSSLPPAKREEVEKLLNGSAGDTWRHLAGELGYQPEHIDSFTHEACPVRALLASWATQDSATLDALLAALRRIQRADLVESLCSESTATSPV

human NGF R100W (from UniProt P01138 122-241) (ligand)
Kd: 100 nM
